# Assay results as given in the Human Domainome abundance scans (Beltran et al. 2025).
# ± gives the uncertainty stated by the source.
# Assay: abundance fitness (aPCA) (normalised: wild type 0, dead -1); higher = more abundant; growth selection in yeast, the domain comes from the species named
# Conditions: Homo sapiens
row,Substance,abundance fitness
1,"Lipoamide acyltransferase component of branched-chain alpha-keto acid dehydrogenase complex, mitochondrial I205Y, P11182",-0.349 ± 0.15
2,"Lipoamide acyltransferase component of branched-chain alpha-keto acid dehydrogenase complex, mitochondrial K187A, P11182",-0.14 ± 0.04
3,"Lipoamide acyltransferase component of branched-chain alpha-keto acid dehydrogenase complex, mitochondrial K187C, P11182",-0.251 ± 0.099
4,"Lipoamide acyltransferase component of branched-chain alpha-keto acid dehydrogenase complex, mitochondrial K187D, P11182",0.009 ± 0.048
5,"Lipoamide acyltransferase component of branched-chain alpha-keto acid dehydrogenase complex, mitochondrial K187E, P11182",-0.133 ± 0.046
6,"Lipoamide acyltransferase component of branched-chain alpha-keto acid dehydrogenase complex, mitochondrial K187G, P11182",-0.304 ± 0.036
7,"Lipoamide acyltransferase component of branched-chain alpha-keto acid dehydrogenase complex, mitochondrial K187H, P11182",-0.144 ± 0.057
8,"Lipoamide acyltransferase component of branched-chain alpha-keto acid dehydrogenase complex, mitochondrial K187I, P11182",-0.078 ± 0.076
9,"Lipoamide acyltransferase component of branched-chain alpha-keto acid dehydrogenase complex, mitochondrial K187L, P11182",-0.126 ± 0.053
10,"Lipoamide acyltransferase component of branched-chain alpha-keto acid dehydrogenase complex, mitochondrial K187M, P11182",-0.075 ± 0.12
11,"Lipoamide acyltransferase component of branched-chain alpha-keto acid dehydrogenase complex, mitochondrial K187N, P11182",-0.026 ± 0.072
12,"Lipoamide acyltransferase component of branched-chain alpha-keto acid dehydrogenase complex, mitochondrial K187P, P11182",0.022 ± 0.049
13,"Lipoamide acyltransferase component of branched-chain alpha-keto acid dehydrogenase complex, mitochondrial K187Q, P11182",-0.06 ± 0.045
14,"Lipoamide acyltransferase component of branched-chain alpha-keto acid dehydrogenase complex, mitochondrial K187R, P11182",-0.04 ± 0.039
15,"Lipoamide acyltransferase component of branched-chain alpha-keto acid dehydrogenase complex, mitochondrial K187S, P11182",-0.045 ± 0.054
16,"Lipoamide acyltransferase component of branched-chain alpha-keto acid dehydrogenase complex, mitochondrial K187T, P11182",-0.097 ± 0.057
17,"Lipoamide acyltransferase component of branched-chain alpha-keto acid dehydrogenase complex, mitochondrial K187V, P11182",-0.139 ± 0.099
18,"Lipoamide acyltransferase component of branched-chain alpha-keto acid dehydrogenase complex, mitochondrial K187W, P11182",-0.538 ± 0.05
19,"Lipoamide acyltransferase component of branched-chain alpha-keto acid dehydrogenase complex, mitochondrial K196A, P11182",-0.054 ± 0.037
20,"Lipoamide acyltransferase component of branched-chain alpha-keto acid dehydrogenase complex, mitochondrial K196C, P11182",-0.22 ± 0.051
21,"Lipoamide acyltransferase component of branched-chain alpha-keto acid dehydrogenase complex, mitochondrial K196F, P11182",-0.408 ± 0.062
22,"Lipoamide acyltransferase component of branched-chain alpha-keto acid dehydrogenase complex, mitochondrial K196G, P11182",-0.159 ± 0.036
23,"Lipoamide acyltransferase component of branched-chain alpha-keto acid dehydrogenase complex, mitochondrial K196H, P11182",-0.17 ± 0.062
24,"Lipoamide acyltransferase component of branched-chain alpha-keto acid dehydrogenase complex, mitochondrial K196I, P11182",-0.185 ± 0.068

row,Substance,abundance fitness
1,"Lipoamide acyltransferase component of branched-chain alpha-keto acid dehydrogenase complex, mitochondrial K196L, P11182",-0.175 ± 0.04
2,"Lipoamide acyltransferase component of branched-chain alpha-keto acid dehydrogenase complex, mitochondrial K196M, P11182",-0.142 ± 0.053
3,"Lipoamide acyltransferase component of branched-chain alpha-keto acid dehydrogenase complex, mitochondrial K196N, P11182",-0.053 ± 0.076
4,"Lipoamide acyltransferase component of branched-chain alpha-keto acid dehydrogenase complex, mitochondrial K196P, P11182",-0.051 ± 0.047
5,"Lipoamide acyltransferase component of branched-chain alpha-keto acid dehydrogenase complex, mitochondrial K196Q, P11182",-0.077 ± 0.047
6,"Lipoamide acyltransferase component of branched-chain alpha-keto acid dehydrogenase complex, mitochondrial K196R, P11182",-0.026 ± 0.039
7,"Lipoamide acyltransferase component of branched-chain alpha-keto acid dehydrogenase complex, mitochondrial K196S, P11182",-0.121 ± 0.044
8,"Lipoamide acyltransferase component of branched-chain alpha-keto acid dehydrogenase complex, mitochondrial K196T, P11182",-0.079 ± 0.044
9,"Lipoamide acyltransferase component of branched-chain alpha-keto acid dehydrogenase complex, mitochondrial K196V, P11182",-0.124 ± 0.037
10,"Lipoamide acyltransferase component of branched-chain alpha-keto acid dehydrogenase complex, mitochondrial K196W, P11182",-0.52 ± 0.053
11,"Lipoamide acyltransferase component of branched-chain alpha-keto acid dehydrogenase complex, mitochondrial K196Y, P11182",-0.222 ± 0.058
12,"Lipoamide acyltransferase component of branched-chain alpha-keto acid dehydrogenase complex, mitochondrial K202A, P11182",0.039 ± 0.042
13,"Lipoamide acyltransferase component of branched-chain alpha-keto acid dehydrogenase complex, mitochondrial K202C, P11182",-0.282 ± 0.086
14,"Lipoamide acyltransferase component of branched-chain alpha-keto acid dehydrogenase complex, mitochondrial K202D, P11182",-0.215 ± 0.058
15,"Lipoamide acyltransferase component of branched-chain alpha-keto acid dehydrogenase complex, mitochondrial K202E, P11182",0.069 ± 0.052
16,"Lipoamide acyltransferase component of branched-chain alpha-keto acid dehydrogenase complex, mitochondrial K202G, P11182",-0.135 ± 0.038
17,"Lipoamide acyltransferase component of branched-chain alpha-keto acid dehydrogenase complex, mitochondrial K202I, P11182",-0.017 ± 0.17
18,"Lipoamide acyltransferase component of branched-chain alpha-keto acid dehydrogenase complex, mitochondrial K202L, P11182",-0.118 ± 0.047
19,"Lipoamide acyltransferase component of branched-chain alpha-keto acid dehydrogenase complex, mitochondrial K202M, P11182",-0.089 ± 0.053
20,"Lipoamide acyltransferase component of branched-chain alpha-keto acid dehydrogenase complex, mitochondrial K202P, P11182",0.011 ± 0.052
21,"Lipoamide acyltransferase component of branched-chain alpha-keto acid dehydrogenase complex, mitochondrial K202Q, P11182",-0.088 ± 0.049
22,"Lipoamide acyltransferase component of branched-chain alpha-keto acid dehydrogenase complex, mitochondrial K202R, P11182",-0.001 ± 0.037
23,"Lipoamide acyltransferase component of branched-chain alpha-keto acid dehydrogenase complex, mitochondrial K202S, P11182",-0.124 ± 0.049
24,"Lipoamide acyltransferase component of branched-chain alpha-keto acid dehydrogenase complex, mitochondrial K202T, P11182",-0.211 ± 0.062
